{
  "source": "paper PMC4605297",
  "biological_target": "T1, SsOGT C29A C29A (Sulfolobus solfataricus) (UniProt Q97VW7)",
  "T1 sequence": "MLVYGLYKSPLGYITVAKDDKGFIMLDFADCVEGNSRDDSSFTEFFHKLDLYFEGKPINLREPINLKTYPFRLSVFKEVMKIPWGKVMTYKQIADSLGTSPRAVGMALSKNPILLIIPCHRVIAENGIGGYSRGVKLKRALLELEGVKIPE",
  "test": "competition",
  "details": "O6-methylguanine at position 26 of strand 1; EMSA: 0-25 uM protein, 0.2 uM probe, 37 C 10 min, 10 ul, buffer as ref. 17, 8% native PAGE in 1X TBE pH 8.3; competition: BG-VG assay, 50 C under ref. …",
  "data": [
    {"sequence": "GGCAGTAGGCCTAGCATGACAATCTGCATTGGTGATCACGG / CGCTCATCCACAATGCAGATTGTCATGCTAGGCCTACTGCC [ds-Fwdm26]", "values": [
      {"measurement": "Ki", "value": 1030, "unit": "nM"}
    ]}
  ]
}
